Holding throughout (settings): tags: American Diagnostica 4500PC/4900PC, E. coli expressed
Series [1] addresses T1, TFPI (tissue factor pathway inhibitor, full-length) (Homo sapiens, UniProt P10646 SEQ:1-276). Nature of the series: competition; meets binding-competition criterion; CAT no. As for the experimental part:
(§1) Each molecule was evaluated for binding to tissue factor pathway inhibitor (TFPI) in a binding-competition assay. For these experiments, 10 nM human TFPI (American Diagnostica, Stamford, Conn., catalog #4500PC) was incubated with trace amounts of radiolabeled ARC17480 and 5000 nM, 1666.67 nM, 555.56 nM, 185.19 nM, 61.73 nM, 20.58 nM, 6.86 nM, 2.29 nM, 0.76 nM or 0.25 nM of unlabeled competitor aptamer. ARC17480 was included as a competitor in every experiment as a control. For each molecule, the percentage of radiolabeled ARC17480 bound at each competitor aptamer concentration was used for analysis. The percentage of radiolabeled ARC17480 bound was plotted as a function of aptamer concentration and fit to the equation y=(max/(1+x/IC₅₀))+int, where y=the percentage of radiolabeled ARC17480 bound, x=the concentration of aptamer, max=the maximum radiolabeled ARC17480 bound, and int=the y-intercept, to generate an IC₅₀ value for binding-competition. The IC₅₀ of each aptamer was compared to the IC₅₀ of ARC17480 that was evaluated in the same experiment. A substitution was considered tolerated in the binding-competition assay if the IC₅₀ of that molecule was not more than 5-fold greater than that of ARC17480 evaluated in the same experiment. Tolerated substitutions are indicated in Table 38 as meeting the assay criteria (“yes”) or not meeting the assay criteria (“no”).

Series [2] concerns the target T1, TFPI (tissue factor pathway inhibitor, …). Nature of the series: competition; fails binding-competition criterion; CAT yes. As to the method:
(§2) The substituted ARC17480 molecules were assayed for binding and function. The assays used for this evaluation were the calibrated automated thrombogram (CAT) assay, a dot-blot binding-competition assay and a FXa activity assay. The results of these assays are summarized in Table 40 and depicted in FIG. 147. A mutation was considered tolerated for activity if it met the criteria of at least two of the three assays that were carried out. Mutations that are tolerated (“yes”) and not tolerated (“no”) are identified in Table 40. The experimental details and the criteria used for each assay are described in the following paragraphs. The molecules described in this example were first tested in the CAT assay and the dot-blot binding-competition assay. In most cases, molecules were only tested in the FXa assay if there was a discrepancy between the results in the CAT assay and the dot-blot binding-competition assay.
(§3) Each molecule was evaluated for binding to tissue factor pathway inhibitor (TFPI) in a binding-competition assay. […] The IC₅₀ of each aptamer was compared to the IC₅₀ of ARC17480 that was evaluated in the same experiment. A mutation was considered tolerated in the binding-competition assay if the IC₅₀ of that molecule was not more than 5-fold greater than that of ARC17480 evaluated in the same experiment. […]

Series [3] has the same target. Nature of the series: competition; competition with 20 nM ARC19499, plate assay. As for the experimental part: In order to assess the affinity of ARC19498 towards TFPI protein, an ARC19499:TFPI binding competition assay was set up. Recombinant human TFPI protein (0.5 mg/mL) was diluted in DPBS to a final concentration of 15 μg/mL, and 100 μL was added to a 96-well Maxisorb plate and incubated overnight at 4° C. The TFPI solution was then removed and the plate was subsequently washed 3 times with 200 μL wash buffer (DPBS+0.05% Tween 20) at room temperature. The plate was then blocked with 200 μL of 10 mg/mL BSA in DPBS for 30 minutes at room temperature. The BSA blocking solution was then removed and the plate was washed again 3 times with 200 μL wash buffer. ARC19498 was serially diluted and mixed at different concentrations with 20 nM ARC19499 in DPBS in 0.1% BSA. The ARC19498:ARC19499 mixtures were added to the plate and incubated for 3 hours at room temperature. After washing 3 times with 200 μL wash buffer, 100 μL of 0.5 μg/mL rabbit monoclonal anti-PEG antibody (Epitomics) was added to the plate and incubated for 60 minutes at room temperature. The anti-PEG antibody solution was then removed and the plate was washed as described above. […] The assay plate was then read at 450 nm using a Victor³V 1420 multilabel counter (Perkin Elmer). […] The IC₅₀ was calculated based on 4-parameter logistics using Graphpad Prism 4 software.

For series [4] the target is unchanged. The series can be described thus: competition; meets binding-competition criterion; CAT and FXa no. As for the experimental part:
as §2
Each molecule was evaluated for binding to tissue factor pathway inhibitor (TFPI) in a binding-competition assay. For these experiments, 10 nM human TFPI (American Diagnostica, Stamford, Conn., catalog #4900PC) was incubated with trace amounts of radiolabeled ARC17480 and 5000 nM, 1666.67 nM, 555.56 nM, 185.19 nM, 61.73 nM, 20.58 nM, 6.86 nM, 2.29 nM, 0.76 nM or 0.25 nM of unlabeled competitor aptamer. ARC17480 was included as a competitor in every experiment as a control. For each molecule, the percentage of radiolabeled ARC17480 bound at each competitor aptamer concentration was used for analysis. […] The IC₅₀ of each aptamer was compared to the IC₅₀ of ARC17480 that was evaluated in the same experiment. A mutation was considered tolerated in the binding-competition assay if the IC₅₀ of that molecule was not more than 5-fold greater than that of ARC17480 evaluated in the same experiment. […]

For series [5] the target is unchanged. The series can be described thus: competition; dot-blot; FXa assay criterion not met. As for the experimental part: (§4) Each molecule was evaluated for binding to tissue factor pathway inhibitor (TFPI) in a binding-competition assay. For these experiments, 10 nM human TFPI (American Diagnostica, Stamford, Conn., catalog #4500PC) was incubated with trace amounts of radiolabeled ARC17480 and 5000 nM, 1666.67 nM, 555.56 nM, 185.19 nM, 61.73 nM, 20.58 nM, 6.86 nM, 2.29 nM, 0.76 nM or 0.25 nM of unlabeled competitor aptamer. ARC17480 was included as a competitor in every experiment as a control. For each molecule, the percentage of radiolabeled ARC17480 bound at each competitor aptamer concentration was used for analysis. The percentage of radiolabeled ARC17480 bound was plotted as a function of aptamer concentration and fit to the equation y=(max/(1+x/IC₅₀))+int, where y=the percentage of radiolabeled ARC17480 bound, x=the concentration of aptamer, max=the maximum radiolabeled ARC17480 bound, and int=the y-intercept, to generate an IC₅₀ value for binding-competition. The IC₅₀ of each aptamer was compared to the IC₅₀ of ARC17480 that was evaluated in the same experiment. A substitution was considered tolerated in the binding-competition assay if the IC₅₀ of that molecule was not more than 5-fold greater than that of ARC17480 evaluated in the same experiment. Tolerated substitutions are indicated in Table 37 as meeting the assay criteria (“yes”) or not meeting the assay criteria (“no”).

Series [6] has the same target. The series can be described thus: competition; dot-blot; CAT criterion not met. As to the method:
as §2
(§5) Each molecule was evaluated for binding to tissue factor pathway inhibitor (TFPI) in a binding-competition assay. For these experiments, 10 nM human TFPI (American Diagnostica, Stamford, Conn., catalog #4900PC) was incubated with trace amounts of radiolabeled ARC17480 and 5000 nM, 1666.67 nM, 555.56 nM, 185.19 nM, 61.73 nM, 20.58 nM, 6.86 nM, 2.29 nM, 0.76 nM or 0.25 nM of unlabeled competitor aptamer. ARC17480 was included as a competitor in every experiment as a control. For each molecule, the percentage of radiolabeled ARC17480 bound at each competitor aptamer concentration was used for analysis. The percentage of radiolabeled ARC17480 bound was plotted as a function of aptamer concentration and fit to the equation y=(max/(1+x/IC₅₀))+int, where y=the percentage of radiolabeled ARC17480 bound, x=the concentration of aptamer, max=the maximum radiolabeled ARC17480 bound, and int=the y-intercept, to generate an IC₅₀ value for binding-competition. The IC₅₀ of each aptamer was compared to the IC₅₀ of ARC17480 that was evaluated in the same experiment. A mutation was considered tolerated in the binding-competition assay if the IC₅₀ of that molecule was not more than 5-fold greater than that of ARC17480 evaluated in the same experiment. Tolerated mutations are indicated in Table 40 as meeting the assay criteria (“yes”) or not meeting the assay criteria (“no”).

The target is the same in series [7]. Nature of the series: competition; dot-blot; CAT and FXa criteria not met. As to the method: as §4
Series [8] has the same target. The series can be described thus: competition; meets binding-competition criterion; CAT no. As to the method:
as §2, §3
The source holds these as a separate data set.

Series [9] shares this target. The series can be described thus: competition; negative control, no competition with ARC17480 in dot blot.
Series [10] shares this target. Nature of the series: competition; dot-blot. As for the experimental part: as §2, §5
For series [11] the target is unchanged. The series can be described thus: competition; fails binding-competition criterion; FXa yes. As for the experimental part:
as §1

T1 sequence (P10646 29-304): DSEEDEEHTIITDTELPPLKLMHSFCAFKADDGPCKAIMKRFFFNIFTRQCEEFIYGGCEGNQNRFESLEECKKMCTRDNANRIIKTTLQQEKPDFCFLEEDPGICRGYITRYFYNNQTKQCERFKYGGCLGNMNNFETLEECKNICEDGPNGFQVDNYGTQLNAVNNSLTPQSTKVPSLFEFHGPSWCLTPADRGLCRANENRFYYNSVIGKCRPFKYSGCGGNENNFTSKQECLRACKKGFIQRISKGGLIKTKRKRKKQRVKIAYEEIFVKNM

As to GGAAUUACUUGGCUCGUUAGGUGCGUAUAUA (mixed, 2'-OMe A/G/U, 2'-deoxy C, 3' idT) [ARC33122], in series [1], the binding signal is ≤ 5 fold IC50 of ARC17480.

In the case of GGAAUAUACUUGGCUCGUUAGGUGCGUAAUA (mixed, 2'-OMe A/G/U, 2'-deoxy C, 3' idT) [ARC33141], the binding signal in [1] is ≤ 5 fold IC50 of ARC17480.

With GGAAUAUACUUGGCUCGUUAUGUGCGUAUAUA (mixed, 2'-OMe A/G/U, 2'-deoxy C, 3' idT) [ARC33169], the binding signal in series [2] was > 5 fold IC50 of ARC17480.

As to GGAAUAUACUUGGCUCGUUAGGUGCGUAUAUA (mixed, 5'-hexylamine, 2'-OMe A/G/U, 2'-deoxy C, 3' idT) [ARC19498], the IC50 (usually the concentration that inhibits the measured activity by half) in series [3] came to 20 nM.

For the molecule GGAAUAUACUUGGTUCGUUAGGUGCGUAUAUA (mixed, 2'-OMe A/G/U, dT14, 2'-deoxy C, 3' idT) [ARC33162], the binding signal in series [4] is ≤ 5 fold IC50 of ARC17480.

In turn, GGAAUAUACUUGGCUCGUUAGGUGCGUAUAUA (XNA, 2'-OMe except dC9, dC25; 2'-OMe C14 and C16; 3' idT) [ARC18545] displayed a binding signal in series [5] not above 5 fold IC50 vs ARC17480.

In series [6], GGAAUAUCCUUGGCUCGUUAGGUGCGUAUAUA (XNA, 2'-OMe except dC9, dC14, dC16, dC25; 3' idT) [ARC34871] had a binding signal of more than 5 fold IC50 vs ARC17480.

The molecule GGAAUCUACUUGGCUCGUUAGGUGCGUAUAUA (XNA, 2'-OMe except dC9, dC14, dC16, dC25; 3' idT) [ARC34867] had a binding signal in series [6] not above 5 fold IC50 vs ARC17480.

GGAAUAUACUUGGCUCGTUAGGUGCGUAUAUA (XNA, 2'-OMe except dC9, dC14, dC16, dC25 and dT18; 3' idT) [ARC19462] returned a binding signal in series [7] not above 5 fold IC50 vs ARC17480.

Turning to GGAAUUUACUUGGCUCGUUAGGUGCGUAUAUA (mixed, 2'-OMe A/G/U, 2'-deoxy C, 3' idT) [ARC33154], in [8], the binding signal is ≤ 5 fold IC50 of ARC17480.

With GGAAUAUACUUGGCUGCUUAGGUGCGUAUAUA (mixed, 2'-OMe A/G/U, 2'-deoxy C, 3' idT) [ARC32603], the binding result in series [9] is given as “no binding”.

Take GGAAUAUUCUUGGCUCGUUAGGUGCGUAUAUA (mixed, 2'-OMe A/G/U, 2'-deoxy C, 3' idT) [ARC33156]: in series [4], the binding signal was ≤ 5 fold IC50 of ARC17480.

GGAAUAUACUUGGCUCGUUAGGUGCGUAUAUA (XNA, 2'-OMe except dC9, dC14, dC25; 2'-OMe C16; 3' idT) [ARC18540] had a binding signal in series [5] not above 5 fold IC50 vs ARC17480.

As for GGAAUAUACUUGGCUCGUUAGGUGCGUAUAUA (XNA, 2'-OMe except dC9, dC14, dC16; 2'-OMe C25; 3' idT) [ARC18541], in [5], the binding signal was not above 5 fold IC50 vs ARC17480.

In [6], GGAAUAUGCUUGGCUCGUUAGGUGCGUAUAUA (XNA, 2'-OMe except dC9, dC14, dC16, dC25; 3' idT) [ARC34870] gave a binding signal not above 5 fold IC50 vs ARC17480.

Consider GGAAGAUACUUGGCUCGUUAGGUGCGUAUAUA (XNA, 2'-OMe except dC9, dC14, dC16, dC25; 3' idT) [ARC34865], for which the binding signal in series [10] was not above 5 fold IC50 vs ARC17480.

Regarding GGAAUAUACTUGGCUCGUUAGGUGCGUAUAUA (XNA, 2'-OMe except dC9, dC14, dC16, dC25 and dT10; 3' idT) [ARC19456], in series [7], the binding signal is not above 5 fold IC50 vs ARC17480.

Consider GGAAAAUACUUGGCUCGUUAGGUGCGUAUAUA (XNA, 2'-OMe except dC9, dC14, dC16, dC25; 3' idT) [ARC34864], for which, in series [6], the binding signal was not above 5 fold IC50 vs ARC17480.

In the case of GGAAUACACUUGGCUCGUUAGGUGCGUAUAUA (mixed, 2'-OMe A/G/U and mC7, other C 2'-deoxy, 3' idT) [ARC33155], in series [4], the binding signal is ≤ 5 fold IC50 of ARC17480.

Turning to GGAAUGUACUUGGCUCGUUAGGUGCGUAUAUA (XNA, 2'-OMe except dC9, dC14, dC16, dC25; 3' idT) [ARC34866], the binding signal in series [10] is not above 5 fold IC50 vs ARC17480.

As for GGAAUAUACUUGGCUCGUUAGGUGCGUACAUA (mixed, 2'-OMe A/G/U and mC29, other C 2'-deoxy, 3' idT) [ARC33177], the binding signal in series [8] was ≤ 5 fold IC50 of ARC17480.

As to GGAAUAUACUUGGCUCGUAGGUGCGUAUAUA (mixed, 2'-OMe A/G/U, 2'-deoxy C, 3' idT) [ARC33132], the binding signal in series [11] is > 5 fold IC50 of ARC17480.

These data come from patent US20110281938, “APTAMERS TO TISSUE FACTOR PATHWAY INHIBITOR AND THEIR USE AS BLEEDING DISORDER THERAPEUTICS” (Baxter Healthcare S.A., published 2011).
